Collision cross section data for 58 sequences are collected here from the supplement of paper PMC10598134.

± gives the standard deviation.

This data set is described as follows: collision cross section of modified peptide (TIMS, N2, iRT-aligned); higher = larger / more extended gas-phase ion. In a few lines: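 On a timsTOF Pro/HT (dda-PASEF, nitrogen, ~2.4 mbar), synthetic peptide pools were analysed after a 120-min nanoflow C18 separation at 60 °C and identified in MaxQuant. Three reference ions served for 1/K0 calibration, with run-wise alignment to the median iRT peptide deviation. Collision cross section comes from the Mason-Schamp equation, using the most abundant feature per charge state averaged over 1–3 technical replicates.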

Where [1] appears, read: charge state: 2, modification: Butyryl.
Setting [2] is: charge state: 3, modification: Crotonyl.
Where [3] appears, read: charge state: 2, modification: Propionyl.
Where [4] appears, read: charge state: 2, modification: Glutarylation.
The mark [5] stands for this setting: charge state: 2, modification: Hydroxyproline.
Where [6] appears, read: charge state: 3, modification: Hydroxyproline.
[7] abbreviates: charge state: 2, modification: Crotonyl.
[8] abbreviates: charge state: 2, modification: GlyGly (K).
Setting [9] is: charge state: 3, modification: GlyGly (K).
The mark [10] stands for this setting: charge state: 2, modification: Succinyl.
Where [11] appears, read: charge state: 3, modification: Methyl (K).
Where [12] appears, read: charge state: 2, modification: Citrullination (R).
[13] abbreviates: charge state: 3, modification: Glutarylation.
[14] abbreviates: charge state: 3, modification: Citrullination (R).
The mark [15] stands for this setting: charge state: 2, modification: Trimethyl (K).
[16] abbreviates: charge state: 3, modification: Trimethyl (K).
Setting [17] is: charge state: 2, modification: Acetyl (K).
Setting [18] is: charge state: 3, modification: Acetyl (K).
Setting [19] is: charge state: 2, modification: Methyl (K).
Setting [20] is: charge state: 2, modification: hydroxyisobutyryl.
Setting [21] is: charge state: 3, modification: hydroxyisobutyryl.
Setting [22] is: charge state: 3, modification: Succinyl.
[23] abbreviates: charge state: 2, modification: Nitro (Y).

In turn, “PLPVALQTRLAK [_PLPVALQTR(Methyl (R))LAK_]” came in with a collision cross section (charge state: 2, modification: Methyl (R)) of 400.79 ± 0.32 Å² and a collision cross section (charge state: 3, modification: Methyl (R)) of 474 ± 2.6 Å². Turning to “VDIDAPDVSIEGPDAKLK [_VDIDAPDVSIEGPDAK(Butyryl)LK_]”, the collision cross section under setting [1] is reported as 472.57 ± 0.49 Å². Take “DAIHFYNKSLAEHR [_DAIHFYNK(Crotonyl)SLAEHR_]”: the collision cross section under setting [2] was 509.89 ± 2 Å². Take “LTEKELAEAASK [_LTEK(Propionyl)ELAEAASK_]”: the collision cross section under setting [3] amounted to 389.08 ± 0.49 Å². “VDIDVPDVNIEGPDAKLK [_VDIDVPDVNIEGPDAK(Butyryl)LK_]” yielded a collision cross section under setting [1] of 488.42 ± 0.47 Å².

As for “YEEIVKEVSTYIK [_YEEIVK(Gluratylation)EVSTYIK_]”, the collision cross section under setting [4] was determined as 443.96 ± 1.5 Å².

In turn, “LEKDYQPGITFIVVQK [_LEKDYQP(Hydroxyproline)GITFIVVQK_]” registered a collision cross section under setting [5] of 457.03 ± 0.32 Å² and a collision cross section under setting [6] of 487.95 ± 1.3 Å².

In the case of “FSAYIKNSNPALNDNLEK [_FSAYIK(Crotonyl)NSNPALNDNLEK_]”, the collision cross section under setting [7] is reported as 486.61 ± 2.3 Å². Regarding “LLIVSTTPYSEKDTK [_LLIVSTTPYSEK(GlyGly (K))DTK_]”, the collision cross section by setting is: under setting [8], 461.81 ± 0.94 Å²; under setting [9], 515.54 ± 1.1 Å². With “PASGAGAGAGAGKR [_PASGAGAGAGAGK(Dimethyl (K))R_]”, the collision cross section reads like this: (charge state: 2, modification: Dimethyl (K)) 385.92 ± 1.6 Å²; (charge state: 3, modification: Dimethyl (K)) 457.59 ± 1.6 Å². Consider “ASDTSSETVFGKR [_ASDTSSETVFGK(Crotonyl)R_]”, for which the collision cross section is 402.93 ± 0.81 Å² under setting [7] and 478.92 ± 1.3 Å² under setting [2]. In turn, “GSLGAQKLANTCFNEIEK [_GSLGAQK(Succinyl)LANTCFNEIEK_]” gave a collision cross section under setting [10] of 470.21 ± 0.66 Å². On to “LFVGGIKEDTEEHHLR [_LFVGGIK(Methyl (K))EDTEEHHLR_]”, for which, under setting [11], the collision cross section turned out to be 545.41 Å². For the sequence “SNEEGSEEKGPEVR [_SNEEGSEEK(GlyGly (K))GPEVR_]”, the collision cross section reads like this: under setting [8], 409.13 ± 2.5 Å²; under setting [9], 474.76 ± 1.1 Å². Consider “DASTLQSQKAEGTGDAK [_DASTLQSQK(Biotin)AEGTGDAK_]”, for which the collision cross section (charge state: 2, modification: Biotin) is on record as 450.36 ± 0.63 Å² and the collision cross section (charge state: 3, modification: Biotin) is listed as 520.24 ± 1.3 Å². Turning to LEKTIDDLEEK [_LEK(Propionyl)TIDDLEEK_], under setting [3], the collision cross section was 406.15 ± 0.38 Å². In the case of “IISSIEQKEENK [_IISSIEQK(GlyGly (K))EENK_]”, the collision cross section amounted to 403.29 ± 1.5 Å² under setting [8] and 482.93 Å² under setting [9].

“ANAIGRGAK [_ANAIGR(Citrullination (R))GAK_]” registered a collision cross section under setting [12] of 313.03 ± 0.86 Å². In the case of “FGTINIVHPKLGSYTK [_FGTINIVHPK(Gluratylation)LGSYTK_]”, the collision cross section runs as follows: under setting [4], 478.34 Å²; under setting [13], 554.9 ± 0.14 Å². The sequence “HTLLRAPAPELLPANVAGR [_HTLLR(Citrullination (R))APAPELLPANVAGR_]” came in with a collision cross section under setting [14] of 517.22 ± 8.9 Å². “VETTVTSLKTK [_VETTVTSLK(Trimethyl (K))TK_]”: the collision cross section by setting is: under setting [15], 391.95 ± 0.62 Å²; under setting [16], 455.28 ± 8.1 Å². With “LLFSNTAAQKLR [_LLFSNTAAQK(Gluratylation)LR_]”, the collision cross section by setting is: under setting [4], 406.85 ± 0.6 Å²; under setting [13], 487.13 ± 1.7 Å². Regarding “FGTINIVHPKLGSYTK [_FGTINIVHPK(Acetyl (K))LGSYTK_]”, the collision cross section runs as follows: under setting [17], 467.42 ± 3.8 Å²; under setting [18], 551.28 ± 1.6 Å². In the case of “VGLQVVAVKAPGFGDNR [_VGLQVVAVK(Methyl (K))APGFGDNR_]”, the collision cross section runs as follows: under setting [19], 454.02 ± 2.2 Å²; under setting [11], 491.77 ± 3.2 Å².

On to “AAQASDLEKIHLDEK [_AAQASDLEK(Propionyl)IHLDEK_]”, for which, where the note is “charge state: 3, modification: Propionyl”, the collision cross section stood at 496.94 Å². Sequence LEKTIDDLEEK [_LEK(Butyryl)TIDDLEEK_] displayed a collision cross section under setting [1] of 409.44 ± 0.57 Å². Turning to “TGPPGSTGSR [_TGPP(Hydroxyproline)GSTGSR_]”, the collision cross section under setting [5] is reported as 312.97 ± 0.79 Å². As to “VQGGALEDSQLVAGVAFKK [_VQGGALEDSQLVAGVAFK(hydroxyisobutyryl)K_]”, the collision cross section came to 481.48 Å² under setting [20] and 565.17 ± 3.4 Å² under setting [21]. For “SKHLQEQLNELK [_SK(hydroxyisobutyryl)HLQEQLNELK_]”, in that order: 425.52 ± 0.81 Å² and 492.58 ± 2.1 Å².

For the sequence “GGPGSTLSFVGKR [_GGPGSTLSFVGK(GlyGly (K))R_]”, the collision cross section is, setting by setting: under setting [8], 403.34 ± 0.36 Å²; under setting [9], 451.29 ± 1.3 Å². “ISALQGKLSK [_ISALQGK(Trimethyl (K))LSK_]”: the collision cross section is reported as 359.1 ± 0.6 Å² under setting [15] and 419.39 ± 1.8 Å² under setting [16].

With “LLALSGPGGGRGR [_LLALSGPGGGR(Citrullination (R))GR_]”, the collision cross section reads like this: under setting [12], 366.92 ± 1 Å²; under setting [14], 440.81 ± 17 Å². “HELQANCYEEVKDR [_HELQANCYEEVK(Succinyl)DR_]”: the collision cross section came out at 444.39 Å² under setting [10] and 483.15 ± 3.9 Å² under setting [22].

Regarding “GRGLPGPAESLR [_GR(Citrullination (R))GLPGPAESLR_]”, the collision cross section under setting [12] stood at 366.62 ± 0.53 Å².

On to LEQVEKELLR [_LEQVEK(Butyryl)ELLR_], for which the collision cross section under setting [1] was found to be 391.61 ± 1.3 Å². Turning to “LEQVEKELLR [_LEQVEK(hydroxyisobutyryl)ELLR_]”, the collision cross section under setting [20] was determined as 394.74 ± 0.29 Å². Still for that read-out and setting: in the case of “LEEVTGKLQVAR [_LEEVTGK(hydroxyisobutyryl)LQVAR_]” it was 399.92 ± 0.3 Å². “YADLTEDQLPSCESLK [_Y(Nitro (Y))ADLTEDQLPSCESLK_]” came in with a collision cross section under setting [23] of 442.66 ± 0.55 Å².

“IVSGKDYNVTANSK [_IVSGK(Methyl (K))DYNVTANSK_]”: the collision cross section is 411.95 ± 2 Å² under setting [19] and 471.19 ± 3.6 Å² under setting [11]. In the same order, the values of “DTPTSAGPNSFNKGK [_DTPTSAGPNSFNK(Methyl (K))GK_]” are 405.71 ± 2.7 Å² and 460.78 ± 4.6 Å². For the setting “charge state: 2, modification: Phospho (Y)”, LYDIDVAK [_LY(Phospho (Y))DIDVAK_] showed a collision cross section of 363.27 ± 0.78 Å². As for “FNALFAQGNYSEAAK [_FNALFAQGNY(Nitro (Y))SEAAK_]”, the collision cross section under setting [23] came to 433.45 ± 0.55 Å². As to VFSIISSEKELK [_VFSIISSEK(Succinyl)ELK_], the collision cross section under setting [10] is 409.2 ± 4.2 Å².

Consider “VFIGNLNTLVVKK [_VFIGNLNTLVVK(Methyl (K))K_]”, for which the collision cross section is, setting by setting: under setting [19], 423.04 ± 1.2 Å²; under setting [11], 477.31 ± 4.3 Å². PSVSTKLISK [_PSVSTK(Succinyl)LISK_] gave a collision cross section under setting [10] of 355.43 ± 0.73 Å². Sequence “LEQVEKELLR [_LEQVEK(Gluratylation)ELLR_]” came in with a collision cross section under setting [4] of 392.7 ± 0.12 Å². Sequence “KYEEIDNAPEER [_K(Trimethyl (K))YEEIDNAPEER_]” gave a collision cross section under setting [15] of 405.59 ± 0.61 Å² and a collision cross section under setting [16] of 490.14 ± 2.4 Å². Take “VGYPGPSGPLGAR [_VGYP(Hydroxyproline)GPSGPLGAR_]”: the collision cross section reads like this: under setting [5], 356.91 ± 0.79 Å²; under setting [6], 437.31 ± 1.7 Å². The sequence “GSIGFPGFPGANGEKGGR [_GSIGFP(Hydroxyproline)GFPGANGEKGGR_]” showed a collision cross section under setting [6] of 489.41 ± 4 Å². “DTGEKLTVAENEAETK [_DTGEK(Formyl)LTVAENEAETK_]” came in with a collision cross section (charge state: 2, modification: Formyl) of 439.79 ± 0.78 Å². With “DLGKFQVATDALK [_DLGK(Methyl (K))FQVATDALK_]”, the collision cross section reads like this: under setting [19], 399.05 ± 1.1 Å²; under setting [11], 491.01 ± 3.2 Å². Where the note is “charge state: 2, modification: HexNAc (ST)”, SISQSISGQK [_S(HexNAc (ST))ISQSISGQK_] showed a collision cross section of 366.39 ± 0.12 Å². For the sequence “ITASLCDLKSR [_ITASLCDLK(Gluratylation)SR_]”, the collision cross section under setting [4] is on record as 391.61 ± 1.4 Å². As for “VTLEVGKVIQQGR [_VTLEVGK(Succinyl)VIQQGR_]”, the collision cross section reads like this: under setting [10], 412.33 ± 0.54 Å²; under setting [22], 481.23 ± 2 Å². Regarding “TQDQISNIKYHEEFEK [_TQDQISNIK(Acetyl (K))YHEEFEK_]”, the collision cross section runs as follows: under setting [17], 481.39 Å²; under setting [18], 555.65 ± 0.58 Å².

ISALQGKLSK [_ISALQGK(Methyl (K))LSK_]: the collision cross section under setting [19] came to 354.46 ± 1.1 Å² and the collision cross section under setting [11] was found to be 434.86 ± 2.4 Å².

On to “VGTASVLQPVKK [_VGTASVLQPVK(Acetyl (K))K_]”, for which the collision cross section under setting [17] came out at 379.84 ± 0.47 Å². For the sequence LEEVTGKLQVAR [_LEEVTGK(Crotonyl)LQVAR_], the collision cross section under setting [7] is 398.71 ± 0.79 Å².
